Ends that are not written are not given here.
B1: AFIIFWVRR synthetic 9-mer peptide (overlapping reference peptide 2, K29R) (peptide)
peptide: AFIIFWVRR
notes: Variant 9-mer of the CD28-4-1BB junction region
B2: FWVKRGLKK (SEQ ID NO: 63) (peptide)
peptide: FWVKRGLKK
notes: synthetic 9-mer; the entry already carries the change; also called R32L
B3: WVKRGRKKA synthetic 9-mer peptide (overlapping reference peptide 7, L35A) (peptide)
peptide: WVKRGRKKA
notes: Variant 9-mer of the CD28 transmembrane / 4-1BB costimulatory junction region of a CAR
B4: WVQRGNKKS synthetic 9-mer peptide (overlapping reference peptide 7, K29Q/L35S) (peptide)
peptide: WVQRGNKKS
modifications: not fully specified
notes: as for B1
B5: WVQRGNKKA synthetic 9-mer peptide (overlapping reference peptide 7, K29Q/L35A) (peptide)
peptide: WVQRGNKKA
modifications: not fully specified
notes: as for B1

How the values were obtained:
[1] = target: T1, HLA-B*08:01 recombinant MHC class I molecule (human); test: REVEAL MHC-peptide binding assay, stabilisation of ternary MHC-peptide complex, recombinant HLA
T1 construct: Recombinant MHC molecule of a bought assay service
Description: (§1) Specifically, assessment was of a series of overlapping 9-mer peptides derived from the sequence […] (set forth in SEQ ID NO: 7), which contains a portion of the CD28 transmembrane domain and 4-1BB costimulatory domain spanning the junction between the domains (bond joining the two amino acids noted in underline). In addition, a series of overlapping 9-mer peptides of each of a number of different variants of this portion also were assessed, each variant containing a mutation or mutations in this region as described in Example 2.
(§2) The various 9-mer overlapping peptides were synthesized and their purity tested by MALDI-TOF Mass Spectrometry.

[2] = target: T2, HLA-A*11:01 recombinant MHC class I molecule (human); test: as above
T2 construct: Recombinant MHC molecule of a bought assay service
Description: as §1, §2

[3] = target: T3, HLA-A*03:01 recombinant MHC class I molecule (human); test: REVEAL MHC-peptide complex stabilisation assay, recombinant HLA-A*03:01
T3 construct: Recombinant MHC molecule incubated with synthetic peptide
Description: as §1, §2

[4] = target: T4, recombinant HLA-A*02:01 MHC class I molecule (human); test: REVEAL MHC-peptide binding assay, stabilisation of ternary complex with recombinant MHC
T4 construct: Recombinant MHC molecule incubated with each synthetic peptide; the assay measures how far the peptide stabilises the ternary MHC-peptide complex; also called HLA-A2:01
Description: as §1, §2

[5] = target: T5, HLA-B*08:01 (recombinant MHC class I molecule) (human); test: REVEAL MHC-peptide complex stabilisation assay, recombinant HLA-B*08:01
T5 construct: Recombinant MHC molecule of the ProImmune REVEAL assay; the test peptide is the third part of the ternary complex
Description: as §1, §2

[6] = target: T6, recombinant HLA-A*03:01 MHC class I molecule (human); test: REVEAL MHC-peptide binding assay, stabilisation of ternary complex with recombinant MHC
T6 construct: Recombinant MHC molecule incubated with each synthetic peptide; the assay measures how far the peptide stabilises the ternary MHC-peptide complex
Description: as §1, §2

Binder | In Vitro Score [1] | In Vitro Score [2] | In Vitro Score [4] | In Vitro Score [6] | further results
WVKRGRKKA (Synthetic 9-mer) | 3.1 % of positive control peptide (set at 100%) | 3.1 % of positive control peptide (set at 100%) | – | – | –
IFWVQRGSK | – | – | – | – | In Vitro Score [3]: 0.3 % of positive control peptide
AFIIFWVRR (Synthetic 9-mer) | 0.3 % of positive control peptide (set at 100%) | 1.5 % of positive control peptide (set at 100%) | – | – | –
B1 | – | – | 1.4 score, % of positive control peptide (=100) | – | –
B2 | – | – | – | – | In Vitro Score [5]: 6.3 % of positive control peptide
WVQRGNKKS (not fully specified, Synthetic 9-mer; also called K29Q/L35S) | 0 % of positive control peptide (set at 100%) | 5 % of positive control peptide (set at 100%) | – | – | –
WVQRGNKKA (not fully specified, Synthetic 9-mer; also called K29Q/L35A) | 0.7 % of positive control peptide (set at 100%) | 0.8 % of positive control peptide (set at 100%) | – | – | –
B3 | – | – | 4.5 score, % of positive control peptide (=100) | 0.9 score, % of positive control peptide (=100) | –
B4 | – | – | 1.2 score, % of positive control peptide (=100) | 0.7 score, % of positive control peptide (=100) | –
B5 | – | – | 1.9 score, % of positive control peptide (=100) | 1.2 score, % of positive control peptide (=100) | –
